According to the supplement of paper PMC10266784:

B1: library; numbered along this chain (parent)
chain: MAAAAAAAAEQQSSNGPVKKSMREKAVERRSVNKEHNSNFKAGYIPIDEDRLHKTGLRGRKGNLAICVIILLFILAVINLIITLVIWAVIRIGPNGCDSMEFHESGLLRFKQVSDMGVIHPLYKSTVGGRRNENLVITGNNQPIVFQQGTTKLSVENNKTSITSDIGMQFFDPRTQNILFSTDYETHEFHLPSGVKSLNVQKASTERITSNATSDLNIKVDGRAIVRGNEGVFIMGKTIEFHMGGNMELKAENSIILNGSVMVSTTRLPSSSSGDQLGSGDWVRYKLCMCADGTLFKVQVTSQNMGCQISDNPCGNTH

Variants of: B1
Experiment: SGCB cell-surface expression functional score (HA stain, bin4 vs bin1, normalised to synonymous) (log10 ratio); higher = more cell-surface SGCB (functional)
In short: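 The functional score is a log ratio of variant frequency in the highest versus the lowest intensity bin, expressed as a median over codons and duplicate transductions. Codon-saturation libraries of HA-tagged, YFP-fused human beta-sarcoglycan were transduced by lentivirus at MOI <0.1 into HEK293 cells stably expressing alpha-, gamma- and delta-sarcoglycan, and the cells were stained on ice with Alexa Fluor 647 anti-HA, fixed and sorted into four 5% intensity bins before amplicon sequencing. Synonymous variants were scaled to mean 0, SD 0.5 within each section.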

| Variant | SGCB cell-surface expression functional score (log10) |
| --- | --- |
| I47A | 0.17 |
| M247R | -0.83 |
| I225M | 0.37 |
| S161R | 0.02 |
| G315D | -0.41 |
| V77E | -0.04 |
| I309C | -1.19 |
| S105V | -0.62 |
| L198K | -1.58 |
| R227T | 0.88 |
| T294F | 0.01 |
| L198G | -1.98 |
| G96H | -1.77 |
| R130V | -0.41 |
| W87A | -0.18 |
| S273A | -0.68 |
| S164L | -1.91 |
| K61S | 0.07 |
| L153G | -0.65 |
| L57M | 0.09 |
| T209K | -1.12 |
| T209V | 0.51 |
| E28P | 0.08 |
| Q142A | -0.06 |

| Variant | SGCB cell-surface expression functional score (log10) |
| --- | --- |
| L80D | -0.2 |
| S21H | 0.03 |
| L191N | -2.28 |
| N79Y | -0.74 |
| F171L | 0.15 |
| S310D | -0.01 |
| R267A | 0.63 |
| N304D | -0.34 |
| T182N | -1.25 |
| K41W | 0.02 |
| C290W | 0.07 |
| C288G | -0.27 |
| G231R | 0.27 |
| P192I | -2.12 |
| F40M | -0.28 |
| A2S | 0.14 |
| G194M | -1.78 |
| G222H | 1.21 |
| Q299T | 0.05 |
| V89I | -0.52 |
| A212K | -1.05 |
| T209D | -1.17 |
| A8M | -0.04 |
| E28S | 0.21 |

| Variant | SGCB cell-surface expression functional score (log10) |
| --- | --- |
| G117M | -0.46 |
| D275Q | -1.58 |
| A251M | 0 |
| M1S | 0.07 |
| S310W | 0.98 |
| A4M | 0.19 |
| E230F | 1.05 |
| I90D | -0.63 |
| N33I | 0.03 |
| K20W | 0.05 |
| N132T | -0.61 |
| K202S | 0.02 |
| S13F | -0.45 |
| V77N | -0.21 |
| A9F | 0.04 |
| I47R | -0.19 |
| V155R | -1.45 |
| D275R | -0.53 |
| E240P | -0.9 |
| N140H | -0.65 |
| T294E | -0.33 |
| G231W | -1.9 |
| Q142M | 0.97 |
| Y184A | -0.95 |

| Variant | SGCB cell-surface expression functional score (log10) |
| --- | --- |
| H103I | -0.36 |
| R227A | 0.72 |
| H36M | -0.06 |
| H36N | 0.25 |
| P173M | 0 |
| R23F | 0.12 |
| F102D | -0.88 |
| I255E | -0.85 |
| F241I | 0.2 |
| I119C | -0.49 |
| G231I | -1.29 |
| N15S | -0.02 |
| K54F | -0.13 |
| I90G | -0.76 |
| I137G | -1.08 |
| V226N | -0.64 |
| T83Y | -0.43 |
| I45Q | -0.67 |
| L287W | -1.34 |
| W87G | -0.12 |
| D215V | -0.56 |
| N316P | 0.29 |
| P46Q | 0.28 |
| T301C | 0.31 |

| Variant | SGCB cell-surface expression functional score (log10) |
| --- | --- |
| G56T | 0.4 |
| L52C | 0.09 |
| I90H | -1.82 |
| V89C | 0 |
| I92C | -1.75 |
| M168A | -1.55 |
| A203F | -0.62 |
| N39I | -0.18 |
| S254I | 0.12 |
| H120I | 0.16 |
| R227P | -1.23 |
| I166D | -1.32 |
| R267L | -0.05 |
| G315N | 0.02 |
| T182L | -1.43 |
| N199G | -0.38 |
| I74Q | 0 |
| V145W | -0.57 |
| N258M | 0.62 |
| R284Y | 0.27 |
| L249H | -1.14 |
| K61Q | -0.08 |
| F296W | 0.16 |
| N258C | 0.74 |

| Variant | SGCB cell-surface expression functional score (log10) |
| --- | --- |
| P313K | -0.22 |
| S310Q | 0.27 |
| Q148L | -0.18 |
| K159Q | -0.09 |
| I166L | -0.38 |
| N211T | -0.4 |
| P173H | 0.19 |
| L216F | -0.42 |
| A212E | 0.91 |
| L287Y | -0.22 |
| F171K | 0.12 |
| I70F | -0.2 |
| E240Q | 1 |
| S270N | -0.08 |
| R91C | -0.72 |
| Q176K | -0.32 |
| A5V | 0.01 |
| G43F | -0.52 |
| M116N | -1.13 |
| I47T | 0.58 |
| N312I | 0.12 |
| S264P | 0.06 |
| G59S | -0.13 |
| N177P | -1.5 |

| Variant | SGCB cell-surface expression functional score (log10) |
| --- | --- |
| L216A | -1.97 |
| M1P | 0.21 |
| G315T | 0.15 |
| N258V | 0.3 |
| S254Q | 0.92 |
| E248F | 0.95 |
| K20H | -0.13 |
| V27Y | 0.26 |
| A76N | 0.08 |
| R131Y | 0.31 |
| A9T | 0.39 |
| Q12L | 0.03 |
| L249A | 0.55 |
| R130N | -0.47 |
| S310E | -0.2 |
| F73P | 0.07 |
| G149H | -0.28 |
| D311P | -0.48 |
| K196P | -0.01 |
| R284E | -1.26 |
| P94N | -0.88 |
| F233K | 0.34 |
| R130T | -0.51 |
